Experimental data from patent publication US20200332271.

Molecular target: dSpCas9 ::KQ KQ insertion (Streptococcus pyogenes) (UniProt Q99ZW2)
Test: cell_activity
Settings: TGG PAM; half the GFP-positive fraction of SpCas9

Sequence of UniProt Q99ZW2 (Q99ZW2 whole entry): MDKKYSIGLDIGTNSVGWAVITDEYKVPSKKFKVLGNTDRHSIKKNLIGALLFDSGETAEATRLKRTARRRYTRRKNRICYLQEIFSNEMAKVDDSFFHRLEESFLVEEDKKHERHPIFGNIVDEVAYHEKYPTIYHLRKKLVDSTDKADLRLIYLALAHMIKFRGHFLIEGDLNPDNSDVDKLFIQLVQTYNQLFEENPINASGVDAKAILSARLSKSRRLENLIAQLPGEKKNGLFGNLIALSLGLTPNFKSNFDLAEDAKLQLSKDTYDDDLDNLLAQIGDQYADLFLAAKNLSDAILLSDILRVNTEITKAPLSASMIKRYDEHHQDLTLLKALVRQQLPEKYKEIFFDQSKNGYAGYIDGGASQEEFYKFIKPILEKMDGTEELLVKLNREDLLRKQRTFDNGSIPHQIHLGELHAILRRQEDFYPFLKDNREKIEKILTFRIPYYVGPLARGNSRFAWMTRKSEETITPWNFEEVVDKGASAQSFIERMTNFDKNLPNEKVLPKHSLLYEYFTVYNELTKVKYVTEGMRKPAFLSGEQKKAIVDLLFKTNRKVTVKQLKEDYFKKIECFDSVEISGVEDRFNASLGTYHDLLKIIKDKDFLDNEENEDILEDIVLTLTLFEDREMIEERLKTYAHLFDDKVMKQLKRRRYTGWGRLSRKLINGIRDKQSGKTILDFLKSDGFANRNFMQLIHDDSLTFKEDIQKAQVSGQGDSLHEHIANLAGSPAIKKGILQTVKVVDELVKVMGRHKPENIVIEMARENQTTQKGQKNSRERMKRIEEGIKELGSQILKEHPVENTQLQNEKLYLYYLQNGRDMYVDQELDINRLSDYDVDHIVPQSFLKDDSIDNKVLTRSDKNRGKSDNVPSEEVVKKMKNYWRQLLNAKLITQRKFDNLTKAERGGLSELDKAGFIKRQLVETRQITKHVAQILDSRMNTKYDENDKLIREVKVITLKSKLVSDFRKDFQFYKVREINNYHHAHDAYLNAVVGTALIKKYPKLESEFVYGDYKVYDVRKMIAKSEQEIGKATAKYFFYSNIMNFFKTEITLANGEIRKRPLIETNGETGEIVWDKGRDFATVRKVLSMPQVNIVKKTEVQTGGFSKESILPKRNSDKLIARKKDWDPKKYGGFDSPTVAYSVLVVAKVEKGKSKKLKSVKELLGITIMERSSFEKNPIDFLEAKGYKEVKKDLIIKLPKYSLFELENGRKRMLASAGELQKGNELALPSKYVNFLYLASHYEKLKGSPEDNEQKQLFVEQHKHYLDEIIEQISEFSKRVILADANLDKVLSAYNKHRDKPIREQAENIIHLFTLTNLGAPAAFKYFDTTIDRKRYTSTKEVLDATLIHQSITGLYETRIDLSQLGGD

With “CGAAAGGUUUUGCACUCGAC / CGAAAGGTTTTGCACTCGACTGG / CCAGTCGAGTGCAAAACCTTTCG [PAM-SCANR sgRNA spacer ; PAM-SCANR protospacer + TGG PAM]” the binding signal (fraction of SpCas9 GFP+ cells) was 0.5.
